According to patent US9580464B2, “Anti-inflammatory proteins and peptides and methods of preparation and use thereof” (ManukaMed Limited, priority 2012, dated 2017):

B1: MGO-modified MRJP1: major royal jelly protein 1 (apalbumin 1) chemically modified by methylglyoxal (protein, UniProt O18330 20-432, looked up)
Major royal jelly protein 1: NILRGESLNKSLPILHEWKFFDYDFGSDERRQDAILSGEYDYKNNYPSDIDQWHDKIFVTMLRYNGVPSSLNVISKKVGDGGPLLQPYPDWSFAKYDDCSGIVSASKLAIDKCDRLWVLDSGLVNNTQPMCSPKLLTFDLTTSQLLKQVEIPHDVAVNATTGKGRLSSLAVQSLDCNTNSDTMVYIADEKGEGLIVYHNSDDSFHRLTSNTFDYDPKFTKMTIDGESYTAQDGISGMALSPMTNNLYYSPVASTSLYYVNTEQFRTSDYQQNDIHYEGVQNILDTQSSAKVVSKSGVLFFGLVGDSALGCWNEHRTLERHNIRTVAQSDETLQMIASMKIKEALPHVPIFDRYINREYILVLSNKMQKMVNNDFNFDDVNFRIMNANVNELILNTRCENPDNDRTPFKISIHL
modifications: methylglyoxal-modified
notes: major royal jelly protein 1 (apalbumin 1) chemically modified by methylglyoxal

Assays:
[1] = biological target: Cathepsin B from bovine spleen (Bos taurus, UniProt P07688); test: Assay for Cathepsin B activity / inhibition (Z-Lys-pNP substrate, absorbance 330 nm); format: biochemical
[2] = Anti-inflammatory activity of MGO-modified proteins (results not shown)
Description: As used herein, “anti-inflammatory capacity” is defined as the capacity to clinically reduce inflammation or the symptoms of inflammation in cellular tissue. Anti-inflammatory capacity may be determined using the phagocytosis inhibition assay (PIA) described in PCT/NZ PCT/NZ/2011/000271 or the DCFDA assay also described in PCT/NZ/2011/000271 or the anti-inflammatory capacity may also be determined by the inhibition of Cathepsin B as described in detail below.

[3] = Table 6, MRJP1 derived synthetic peptides, MGO-modified
[4] = Table 6, MRJP1 derived synthetic peptides, unmodified
[5] = Table 8, MRJP5 derived synthetic peptides, MGO-modified
[6] = Table 8, MRJP5 derived synthetic peptides, unmodified
[7] = Table 1, peptides from C-terminus of MRJP1, 2 mM MGO-modified peptide
[8] = Table 1, peptides from C-terminus of MRJP1, 2 mM unmodified peptide
[9] = Table 9, additional synthetic peptides, MGO-modified
[10] = Table 9, additional synthetic peptides, unmodified
[11] = Table 3, peptides from C-terminus of MRJP3, 2 mM MGO-modified peptide
[12] = Table 3, peptides from C-terminus of MRJP3, 2 mM unmodified peptide

Molecule | Cathepsin B remaining activity (% of control) [1, 3] | Cathepsin B remaining activity (% of control) [1, 4] | Cathepsin B remaining activity (% of control) [1, 5] | Cathepsin B remaining activity (% of control) [1, 6] | other results
Ac-CDR-OH (Ac-Cys-Asp-Arg-OH) [MRJP1 derived synthetic peptide] | 78.51 ± 2.51 | 120.52 ± 8.17 |  |  | 
Ac-FDR-OH (Ac-Phe-Asp-Arg-OH) [MRJP1 derived synthetic peptide] | 44.78 ± 1.54 | 85.57 ± 3.51 |  |  | 
Ac-FTK-OH (Ac-Phe-Thr-Lys-OH) [MRJP1 derived synthetic peptide] | 105.35 ± 5.73 | 148.84 ± 16.13 |  |  | 
Ac-HNIR-OH [MRJP1 derived synthetic peptide] | 106.82 ± 3.02 | 171.58 ± 11.29 |  |  | 
Ac-IDR-OH (Ac-Ile-Asp-Arg-OH) [MRJP5 derived synthetic peptide] |  |  | 81.75 ± 3.26 | 93.46 ± 12.24 | 
Ac-KISI-OH [synthetic peptide derived from the C-terminus of MRJP1] |  |  |  |  | Cathepsin B remaining activity (% of control) [1, 7]: 92.82 ± 5.44; Cathepsin B remaining activity (% of control) [1, 8]: 133.11 ± 4.29
Ac-LIR-NH2 (Ac-Leu-Ile-Arg-NH2) [synthetic peptide derived from MRJP2, 4 (see Leu408), amidated C-terminus] |  |  |  |  | Cathepsin B remaining activity (% of control) [1, 9]: 72.56; Cathepsin B remaining activity (% of control) [1, 10]: 65.39 ± 2.75
Ac-LIR-OH (Ac-Leu-Ile-Arg-OH) [synthetic peptide derived from MRJP2, 4 (see Leu408)] |  |  |  |  | Cathepsin B inhibition after MGO modification ([1]; MGO-modified synthetic peptides): particularly potent activity; Cathepsin B remaining activity (% of control) [1, 9]: 0.07; Cathepsin B remaining activity (% of control) [1, 10]: 128.28 ± 2.50
Ac-LLK-NH2 (Ac-Leu-Leu-Lys-NH2) [synthetic peptide derived from MRJP1, 2, 4, amidated C-terminus] |  |  |  |  | Cathepsin B remaining activity (% of control) [1, 9]: 136.90; Cathepsin B remaining activity (% of control) [1, 10]: 159.34 ± 2.34
Ac-LLK-OH (Ac-Leu-Leu-Lys-OH) [synthetic peptide derived from MRJP1, 2, 4] |  |  |  |  | Cathepsin B remaining activity (% of control) [1, 9]: 147.60; Cathepsin B remaining activity (% of control) [1, 10]: 141.56 ± 13.90
Ac-LQK-OH (Ac-Leu-Gln-Lys-OH) [MRJP5 derived synthetic peptide] |  |  | 90.15 ± 1.52 | 102.05 ± 10.32 | 
Ac-LVK-NH2 (Ac-Leu-Val-Lys-NH2) [synthetic peptide derived from MRJP3 (see Leu170), amidated C-terminus] |  |  |  |  | Cathepsin B remaining activity (% of control) [1, 9]: 80.03; Cathepsin B remaining activity (% of control) [1, 10]: 92.71 ± 7.78
Ac-LVK-OH (Ac-Leu-Val-Lys-OH) [synthetic peptide derived from MRJP3 (see Leu170)] |  |  |  |  | Cathepsin B remaining activity (% of control) [1, 9]: 80.84; Cathepsin B remaining activity (% of control) [1, 10]: 143.92 ± 3.15
Ac-MDK-OH (Ac-Met-Asp-Lys-OH) [MRJP5 derived synthetic peptide] |  |  | 99.38 ± 1.63 | 109.67 ± 3.13 | 
Ac-MDR-OH (Ac-Met-Asp-Arg-OH) [MRJP5 derived synthetic peptide] |  |  | 88.56 ± 2.14 | 107.34 ± 1.46 | 
Ac-MHR-OH (Ac-Met-His-Arg-OH) [MRJP5 derived synthetic peptide] |  |  | 90.13 ± 17.28 | 101.26 ± 4.59 | 
Ac-MQK-OH (Ac-Met-Gln-Lys-OH) [MRJP1 derived synthetic peptide] | 69.15 ± 4.87 | 121.24 ± 3.57 |  |  | 
Ac-MTR-OH (Ac-Met-Thr-Arg-OH) [MRJP1 derived synthetic peptide] | 118.90 ± 5.62 | 126.30 ± 8.12 |  |  | 
Ac-NQKN-OH [synthetic peptide derived from the C-terminus of MRJP2] |  |  |  |  | Cathepsin B remaining activity (% of control) ([1]; Table 2, peptides from C-terminus of MRJP2, 2 mM MGO-modified peptide): 102.36 ± 6.36; Cathepsin B remaining activity (% of control) ([1]; Table 2, peptides from C-terminus of MRJP2, 2 mM unmodified peptide): 282.39 ± 19.66
Ac-PFKI-OH [synthetic peptide derived from the C-terminus of MRJP1] |  |  |  |  | Cathepsin B remaining activity (% of control) [1, 7]: 91.45 ± 0.11; Cathepsin B remaining activity (% of control) [1, 8]: 152.05 ± 13.20
Ac-SKLH-OH [synthetic peptide derived from the C-terminus of MRJP3] |  |  |  |  | Cathepsin B remaining activity (% of control) [1, 11]: 67.57 ± 1.73; Cathepsin B remaining activity (% of control) [1, 12]: 146.35 ± 2.91
Ac-SSKS-OH |  |  |  |  | Cathepsin B remaining activity (% of control) [1, 11]: 107.49 ± 4.29; Cathepsin B remaining activity (% of control) [1, 12]: 118.71 ± 9.09

Molecule | Cathepsin B remaining activity (% of control) [1, 3] | Cathepsin B remaining activity (% of control) [1, 4] | Cathepsin B remaining activity (% of control) [1, 5] | Cathepsin B remaining activity (% of control) [1, 6] | other results
Ac-TDK-OH (Ac-Thr-Asp-Lys-OH) [MRJP5 derived synthetic peptide] |  |  | 92.75 ± 2.41 | 100.51 ± 10.69 | 
Ac-TNR-OH (Ac-Thr-Asn-Arg-OH) [MRJP5 derived synthetic peptide] |  |  | 91.72 ± 0.84 | 96.48 ± 2.03 | 
Ac-VNR-OH (Ac-Val-Asn-Arg-OH) [MRJP5 derived synthetic peptide] |  |  | 68.49 ± 8.73 | 99.83 ± 3.40 | 
Ac-YINR-OH [MRJP1 derived synthetic peptide] | 99.05 ± 7.78 | 93.14 ± 2.42 |  |  | 
H-CDR-OH (H-Cys-Asp-Arg-OH) [MRJP1 derived synthetic peptide] | 96.01 ± 6.45 | 165.10 ± 0.38 |  |  | 
H-FDR-OH (H-Phe-Asp-Arg-OH) [MRJP1 derived synthetic peptide] | 71.18 ± 2.22 | 174.56 ± 11.96 |  |  | 
H-FTK-OH (H-Phe-Thr-Lys-OH) [MRJP1 derived synthetic peptide] | 76.59 ± 2.24 | 147.63 ± 0.70 |  |  | 
H-HNIR-OH [MRJP1 derived synthetic peptide] | 103.38 ± 3.65 | 151.51 ± 0.62 |  |  | 
H-IDR-OH (H-Ile-Asp-Arg-OH) [MRJP5 derived synthetic peptide] |  |  | 85.60 ± 5.32 | 98.02 ± 2.54 | 
H-LQK-OH (H-Leu-Gln-Lys-OH) [MRJP5 derived synthetic peptide] |  |  | 95.26 ± 5.54 | 102.47 ± 4.27 | 
H-MDK-OH (H-Met-Asp-Lys-OH) [MRJP5 derived synthetic peptide] |  |  | 70.62 ± 12.34 | 104.25 ± 2.73 | 
H-MDR-OH (H-Met-Asp-Arg-OH) [MRJP5 derived synthetic peptide] |  |  | 74.46 ± 0.97 | 101.73 ± 2.37 | 
H-MHR-OH (H-Met-His-Arg-OH) [MRJP5 derived synthetic peptide] |  |  | 80.66 ± 6.19 | 96.77 ± 9.26 | 
H-MQK-OH (H-Met-Gln-Lys-OH) [MRJP1 derived synthetic peptide] | 99.48 ± 2.95 | 127.00 ± 0.93 |  |  | 
H-MTR-OH (H-Met-Thr-Arg-OH) [MRJP1 derived synthetic peptide] | 104.39 ± 2.68 | 143.48 ± 2.33 |  |  | 
H-TDK-OH (H-Thr-Asp-Lys-OH) [MRJP5 derived synthetic peptide] |  |  | 87.53 ± 3.26 | 103.18 ± 4.50 | 
H-TNR-OH (H-Thr-Asn-Arg-OH) [MRJP5 derived synthetic peptide] |  |  | 91.86 ± 3.50 | 102.61 ± 5.34 | 
H-VNR-OH (H-Val-Asn-Arg-OH) [MRJP5 derived synthetic peptide] |  |  | 82.63 ± 7.88 | 97.75 ± 10.62 | 
H-YINR-OH [MRJP1 derived synthetic peptide] | 79.21 ± 2.12 | 142.33 ± 3.64 |  |  | 
MGO-modified bovine serine albumin: bovine serum albumin reacted with methylglyoxal, comparison protein [reference compound] |  |  |  |  | Anti-inflammatory activity [2]: no anti-inflammatory activity
B1 |  |  |  |  | Anti-inflammatory activity [2]: enhanced anti-inflammatory properties
